# In paper PMC2861713:
# Key:
# [1] = target: (His)10-p34(37–319) (Helicobacter pylori); experiment: SEC; Superose 6 10/300 GL, in the presence of 2 M urea
# [2] = target: (His)10-p34(37–319) (Helicobacter pylori); experiment: SEC; Superose 6 10/300 GL, 0.5 ml/min, in the presence of 10% glycerol; mass from the Kav of the most prominent peak against marker proteins
# [3] = target: (His)10-p34(37–319) (Helicobacter pylori); experiment: SEC; in the presence of 4 M urea; Superose 6 10/300 GL for (His)10-p34, Superose 12 10/300 GL (1.0 ml/min) for (His)10-p34ΔN/ΔC; mass against marker proteins
# [4] = target: (His)10-p34ΔN/ΔC (p34 residues 37–292 linked to a 10 histidine tag) (Helicobacter pylori); experiment: as above
Substance,stoichiometry N [1],stoichiometry N [2],stoichiometry N [3],stoichiometry N [4]
(His)10-p34(37–319) (domain or fragment),6 subunits,6 subunits,6 subunits,
(His)10-p34ΔN/ΔC (p34 residues 37–292 linked to a 10 histidine tag) (domain or fragment),,,,6 subunits
